The results in this text go back to FireProtDB (doi:10.1002/pro.5560051112).

Several values for one entry are separate records, joined by “and”; a condition that tells them apart may be missing. Identical values can stand only once.

For the data set the following is noted: pH 6, Thermal, DSC, Sodium cacodylate 2 mM, reversible: yes(>80%), whole UniProt chain shown; for unfolding free energy: 25 °C.
The mark [1] stands for this setting: Paenibacillus macerans, CaCl2 1 mM.

B1: Beta-glucanase wild type, P23904 (protein)
chain: MKKKSCFTLVTTFAFSLIFSVSALAGSVFWEPLSYFNRSTWEKADGYSNGGVFNCTWRANNVNFTNDGKLKLGLTSSAYNKFDCAEYRSTNIYGYGLYEVSMKPAKNTGIVSSFFTYTGPAHGTQWDEIDIEFLGKDTTKVQFNYYTNGVGGHEKVISLGFDASKGFHTYAFDWQPGYIKWYVDGVLKHTATANIPSTPGKIMMNLWNGTGVDDWLGSYNGANPLYAEYDWVKYTSN
The Tm is the temperature at which the thermal transition is half complete. On to B1, for which, under setting [1], the unfolding free energy was determined as 9 kcal/mol; the Tm was 50.8 °C and 50.5 °C; the “unfolding enthalpy (calorimetric)” value was 139 kcal/mol and 156 kcal/mol. Moreover, under “Paenibacillus macerans”, the unfolding free energy came to 6.1 kcal/mol, the Tm turned out to be 44.5 °C and the “unfolding enthalpy (calorimetric)” value came to 119 kcal/mol.

B2: Beta-glucanase wild type, P07980 (protein)
chain: MKRVLLILVTGLFMSLCGITSSVSAQTGGSFFEPFNSYNSGLWQKADGYSNGDMFNCTWRANNVSMTSLGEMRLALTSPSYNKFDCGENRSVQTYGYGLYEVRMKPAKNTGIVSSFFTYTGPTEGTPWDEIDIEFLGKDTTKVQFNYYTNGAGNHEKFADLGFDAANAYHTYAFDWQPNSIKWYVDGQLKHTATTQIPAAPGKIMMNLWNGTGVDDWLGSYNGVNPIYAHYDWMRYRKK
Turning to B2, the Tm runs as follows: (Bacillus amyloliquefaciens, CaCl2 1 mM) 58.9 °C; (Bacillus amyloliquefaciens) 48.7 °C.
